Measured values from patent publication US20030163841A1 (YALE UNIVERSITY, published 2003).

Legend:
[1] = molecular target: the molecule itself; assay: yeast two-hybrid, LacZ reporter
Source text: (C) Delimitation of Cop1 self-association domain utilizing the yeast two-hybrid system. For baits (Bait), Cop1 domain fragments were fused with the LexA DNA binding domain (LexA). For preys (Prey), the COP1 domain fragments were fused with the synthetic transcription activation domain (AD). Numbers and names at the left indicate a pairwise combination of bait and prey constructs in each row. The graph at the right indicates the relative LacZ reporter activity in yeast cells corresponding to combinations of bait and prey constructs presented in each row. For each pairwise combination, at least 8 individual transformants were used to measure the LacZ activity. Error bars represent standard deviation. Combination 1 (LexA: N282) and 2 (N282:AD) serve as negative controls.
pKS-RING and pKS-Coil are digested with EcoRI and XhoI, and rest of the COP1 domain cassettes in the pKSm vectors were digested with EcoRI. Fragments were then ligated into pEG202 or pJG4-5 to generate COP1 domains fused to the LexA DNA binding protein or the synthetic activation domain, respectively (Golemis et al., 1995). Generation of pEG-N282, pJG-N282, pJG-COP1, and pJG-ΔRING was described elsewhere (McNellis et al., 1996; Ang et al., 1998). To generate pJG-GUS-ΔRΔC, pRTL-GUS-ΔRΔC was cleaved with NcoI and XbaI and then ligated into NcoI/XbaI digested pKS-COP1. […]

[2] = molecular target: the molecule itself; assay: chemical cross-linking (DSub or EGS) of in vitro translated protein, SDS-PAGE, fluorography
Protocol: Protein immunoblot analysis was performed exactly as described previously (McNellis et al., 1994a). pAR-COP1 , a FLAG-tagged COP1 that has an additional peptide […] at the N-terminus (Matsui et al., 1995), was in vitro transcribed and translated using TNT coupled reticulocyte lysate system (Promega) and radiolabelled with [³⁵S]methionine (Amersham). For chemical cross-linking, 2 μl of translation mix (with radiolabelled proteins) was diluted to 18 μl with a reaction buffer (100 mM potassium phosphate [pH 7.7]; 100 mM NaCl; 0.1 mM ZnSO₄; 10% glycerol; 0.1% NonidetP-40; 4 mM DTT) and cross-linked with 2 μl of freshly diluted Dsub or EGS in dimethyl sulfoxide. For a negative control, 2 μl of dimethyl sulfoxode was added to the reaction. After 20 min incubation at room temperature, the reaction was quenched by addition of 2 μl of 1 M glycine (for Dsub) or 200 mM lysine (for EGS) and 22 μl of 2× Laemmli SDS-PAGE buffer. Samples were boiled for 5 min, separated by 6% SDS-PAGE, and fluorographed after treatment with Amplify (Amersham).
To better understand the COP1 self-association, we performed a chemical cross-linking analysis of in-vitro translated COP1 protein in solution. A FLAG-COP1 epitope tagged protein was in-vitro translated and then cross-linked with either dimethylsuberimidate (DSub) or ethylene glycobis (succinimidylsuccinate) (EGS). […]

[3] = molecular target: the molecule itself; assay: gel filtration (Superdex-200) of seedling extracts, immunoblot of fractions
Protocol: For gel filtration chromatography, 8-day-old light- or dark grown seedlings were homogenized with 2× gel filtration buffer containing 50 mM Tris-HCl (pH 7.5), 440 mM NaCl, 2 mM MgCl₂, 2 μM ZnSO₄, 0.5 mM PMSF and centrifuged for 5 min at 4° C. Total soluble protein was fractionated through a 25 ml Superdex-200 FPLC column (Pharmacia) with 1× gel filtration buffer at a flow rate of […]. All procedures were carried out at 4° C. and, for dark samples, under dim green safe light. Consecutive fractions of 0.5 ml each were collected after the void volume (7.5 ml), concentrated, and subjected to 10% SDS-PAGE followed by a protein immunoblot analysis. The molecular weight standards for size estimation of the native COP1 protein were as follows: blue dextran (void); thyroglobulin (669 kDa); ferritin (440 kDa); catalase (232 kDa); aldolase (158 kDa); BSA (67 kDa); ovalbumin (43 kDa); and ribonuclease A (13.7 kDa) (Sigma).
To confirm the presence of COP1 dimers in vivo, a gel-filtration analysis was performed using protein extracts from light- or dark-grown Arabidopsis wild-type seedlings. […] However, the COP1 peak was very broad and contained a broad shoulder toward the larger molecular size fractions (FIG. 1B). Therefore it is possible that a portion of COP1 may present as homo-oligomers or in heterogeneous associations with other molecules in vivo. […]

B1: Coil domain of COP1 (pKS-Coil cassette) (other)
chain: MDKLLKKTSARHVSKTASPLDQFREALQRGCDVSIKEVDNLLTLLAERKRKMEQEEAERNMQILLDFLHCLRKQKVDELNEVQTDLQYIKEDINAVERHRIDLYRARD
notes: The cassette used in yeast starts at aa104 (L104M); Fused to LexA or AD in yeast; also called coiled-coil domain
[1]
  binding result: binds

B2: FLAG-COP1 epitope tagged protein (pAR-COP1), in vitro translated and [35S]methionine labelled (other, Arabidopsis)
chain: DDADTKDDDDKMEEISTDPVVPAVKPDPRTSSVGEGANRHENDDGGSGGSEIGAPDLDKDLLCPICMQIIKDAFLTACGHSFCYMCIITHLRNKSDCPCCSQHLTNNQLYPNFLLDKLLKKTSARHVSKTASPLDQFREALQRGCDVSIKEVDNLLTLLAERKRKMEQEEAERNMQILLDFLHCLRKQKVDELNEVQTDLQYIKEDINAVERHRIDLYRARDRYSVKLRMLGDDPSTRNAWPHEKNQIGFNSNSLSIRGGNFVGNYQNKKVEGKAQGSSHGLPKKDALSGSDSQSLNQSTVSMARKKRIHAQFNDLQECYLQKRRQLADQPNSKQENDKSVVRREGYSNGLADFQSVLTTFTRYSRLRVIAEIRHGDIFHSANIVSSIEFDRDDELFATAGVSRCIKVFDFSSVVNEPADMQCPIVEMSTRSKLSCLSWNKHEKNHIASSDYEGIVTVWDVTTRQSLMEYEEHEKRAWSVDFSRTEPSMLVSGSDDCKVKVWCTRQEASVINIDMKANICCVKYNPGSSNYIAVGSADHHIHYYDLRNISQPLHVFSGHKKAVSYVKFLSNNELASASTDSTLRLWDVKDNLPVRTFRGHTNEKNFVGLTVNSEYLACGSETNEVYVYHKEITRPVTSHRFGSPDMDDAEEEAGSYFISAVCWKSDSPTMLTANSQGTIKVLVLAA
notes: range 1-675; Monomer 78 kDa, cross-linked product about 160 kDa; A second, lower band may start at an internal methionine of COP1; also called FLAG-tagged COP1
[2]
  binding result: binds

B3: endogenous Arabidopsis COP1 protein (extracts of wild-type seedlings) (other, UniProt P43254 1-675, looked up)
chain: MEEISTDPVVPAVKPDPRTSSVGEGANRHENDDGGSGGSEIGAPDLDKDLLCPICMQIIKDAFLTACGHSFCYMCIITHLRNKSDCPCCSQHLTNNQLYPNFLLDKLLKKTSARHVSKTASPLDQFREALQRGCDVSIKEVDNLLTLLAERKRKMEQEEAERNMQILLDFLHCLRKQKVDELNEVQTDLQYIKEDINAVERHRIDLYRARDRYSVKLRMLGDDPSTRNAWPHEKNQIGFNSNSLSIRGGNFVGNYQNKKVEGKAQGSSHGLPKKDALSGSDSQSLNQSTVSMARKKRIHAQFNDLQECYLQKRRQLADQPNSKQENDKSVVRREGYSNGLADFQSVLTTFTRYSRLRVIAEIRHGDIFHSANIVSSIEFDRDDELFATAGVSRCIKVFDFSSVVNEPADMQCPIVEMSTRSKLSCLSWNKHEKNHIASSDYEGIVTVWDVTTRQSLMEYEEHEKRAWSVDFSRTEPSMLVSGSDDCKVKVWCTRQEASVINIDMKANICCVKYNPGSSNYIAVGSADHHIHYYDLRNISQPLHVFSGHKKAVSYVKFLSNNELASASTDSTLRLWDVKDNLPVRTFRGHTNEKNFVGLTVNSEYLACGSETNEVYVYHKEITRPVTSHRFGSPDMDDAEEEAGSYFISAVCWKSDSPTMLTANSQGTIKVLVLAA
notes: range 1-675; Gel filtration peak at about 160 kDa is read as a dimer; The peak is broad, so oligomers, other partners and some monomer are not excluded; also called native COP1 protein
[3]
  binding result: binds
